Publication PMC5707625 (Biochemistry, 2017)

How the values were obtained:
[1] = biological target: T1, BlaC (Mycobacterium tuberculosis, UniProt P9WKD3); experiment: […] Å crystal structure; format: binding
[2] = biological target: T1, BlaC; experiment: biochemical; format: binding
[3] = tested on: O=C(Cc1cccs1)N[C@@H]1C(=O)N2C(C(=O)O)=C(/C=C/c3ccc([N+](=O)[O-])cc3[N+](=O)[O-])CS[C@H]12; experiment: purified protein; conditions: pH 6.0

T1 sequence (P9WKD3 43-307 limits assumed): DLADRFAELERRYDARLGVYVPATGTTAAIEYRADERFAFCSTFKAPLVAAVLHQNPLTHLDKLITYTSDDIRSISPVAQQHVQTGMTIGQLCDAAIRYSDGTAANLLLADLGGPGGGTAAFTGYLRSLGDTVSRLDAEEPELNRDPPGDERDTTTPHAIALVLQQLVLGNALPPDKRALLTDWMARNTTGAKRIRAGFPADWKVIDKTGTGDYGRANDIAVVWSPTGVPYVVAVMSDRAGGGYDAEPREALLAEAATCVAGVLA

## CC(=O)O [acetate]
[1]
  2.1 Å crystal structure: acetate occupies the carboxylate binding site and forms hydrogen bridges with residues Ser-130, Thr-235, and Thr-237

## O=P(O)(O)O [phosphate]
[2]
  Kd: 27 ± 11 mM

## BlaC (Mycobacterium tuberculosis H37Rv)
[3]
  Km: 38 ± 7 µM
  kcat: 69 ± 1 s⁻¹
  kcat/Km: 1.8e+06 ± 300000 M⁻¹ s⁻¹
